A short description of this data set: label from the status in PepcDB records.

With “MRKDDVVIVTCAITGAIHTPSMSPYLPVTPDQIVEEAVKAAEAGAGMVHIHARDPKDGRPTTDVEVFRYICREIKKQSDVVINVTTGGGGTLGIPVEERAKVVPALKPEIATFNMGSMNFAIHPLLKKYKEFKYDWEPEYLEMTRDIVFRNTFKDLEALSRIFKENDTKPELECYDIGQIYNTAFMFHEGYLEPPLRLQFIHGILGGIGTAVEDVLFMKQTADRLIGRENYTWSLVGAGRFQMPLGTLAVIMGGDVRVGLEDSLYIERGKLAKSNAEQVEKMVRIVKELGKRPATPDEVREILGLKGKERVNF”, the protein production entry is listed as “not failed”.
The entry for “MRKDTEEVQKSSGKTRKSYVKVKKKRRKSTKQKGPEPKKLDFVKDSWQKGSLEIKKLDFIGDRWQTVSLEPKMLGFVEDPWRKGSLEPKMLDFVEDPWQKGSLEPKMLDIVEDSWQKDSFEAMKLDFAEYNWISIDNRRVSADSKRSSVDSKRSSVDSKRSSVDSKRGSIDSRKFSVDSKRDPVDNKRDSVDSKRFSVDSKRFSVDSRRVSISSKRSSIDSKRSSVDSRKSSGGTLLDFSEDRRSSGEDRDISSLARVRHSRVPWATLMRALGRFKLYLPHIRRYYNLSSRDPLALDKDFLLPREKHLKATVQKSWGNQQPLSKIPYKTLTGHDQTVSSCHFCMDDTRLLSSSYDCTVKLWDAEDGTVICDFEPRPKAPVLECSITADNRRIVASSYDKTVRAWDVETGQLLWKVRHDTFVVCCKFSPNGKYVLSALDVNRGIYLMDPENITSVIHMKAQHQRSITSCCFDPDSQKVASVSMDKSIKIWDVTSRATLFTIQEAHTNAISDCCFTFSGHFLCTSSWDRTIKIWNVHTGEFRNQGACVTLMKGHEGCVSSCCIARDSSFLISGGFDKTVAIWDVGGGYRKLSLKGHEDWVTDVAISNDKKWILSASKDNSMRLWNIEEIDKIPLVSENKRAMGLKVRQCRNCDQLFSVLESDVYSQLSNTCLFCRREKKSLSSSSSSLSLSSLERLCI” is “failed”; for “MRKFTILLLLLWLPSFVSSLTEFDSVMDLRKQLIVLTGWLGFAYMGAAIVLSARFKWTERLVKGLDKAYGLHKKLGISAFIALLLHWLVIKAAHWAVQLGWLVRPTHAGKERVITGVDWISLAEKVGDISFKVFILFTIISLVERISYKKFKGIHKIGGALMLAGVFHTLFLIKWDLSLIPMNIAIILISAISVWCAILSLTGSIGKKNKIGGQVVLVDKFKDDSEFTVVARLQIKLESKLRYKEGQFAYINFHDGEAPHPFSILNYNEKTRLVEFGIKDLGDYTHQLVNQIAVGKKATVEGGYGYFQVPSDMNQVWVGAGIGIVPLLSRLYWLQKSTDKTTKRIEKIHLFYCVNNEKEAFFSTEIKAILRKMDFIELHLIESDKGYRLTSEYILNKIDNESFSVSFCGPEGFGMSLKQGLMANGLPEASFHKEIFKMR” it is “failed”.
The entry for “MRKHSDCMNFCAVDATKGICRLSKQMINLDDAACPEIKVMPKCKNCKNFVEANDEGIGKCVGLEKEDWVYSTLNAITCEGHVFNE” is “failed”.
The entry for “MRKILVVGAGQSGLQLALGLQSHGYEVTLMSNRTADEIRSGRVMSTQCMFDTALGHERDLQLNFWESQAPKIEGLGVSVAAPGSFDPGPSQRAIDWVGKLDGYAQSVDQRVKMAGWMETFAQRGGQLVIHGAAVSDLDYFSRAYDLVLVSAGKGELVSMFGRDASRSPYSEPQRALAVAYVHGLGPRPEHPDYDAVRCNLVPGVGELFVMPTLTTSGRADILFWEGIPGGPLDVFKGVNDPGEHLSLTLELMERFTPWEYARATKVELTDGNGTLAGRYAPTVRNPVGRLPGGGLVLGVADVVVANDPITGQGSNSASKCAAAYLASIVEHGEKEFDETWMRATFDRYWDTAQHVTKWTNAMLGVPPEHVLNLIGAAGALQPVANRFANGFDNPADFENFFYEPEKTEAYLASVAGS” is “failed”; for “MRKKKDGQNLPDFRKNPPKLDKKAYEKELKRLQAELVDLQQWVVETGARVVIVMEGRDAAGKGSAIKRITQYLNPRSARIEALPTPNSREKGQWYFQRYIEKLPTAGEIVIFDRSWYNRAGVERVMGFCTSQEYRRFLHQAPIFERLLVEDGIHLRKYWFSVSDEEQIERFEDRLSDPLRRWKLSPMDLQSITRWEDYSRAKDEMFIHTDIPSAPWYTVESEDKKRSRINVISHLLSTIPYEKIDRPLPEIPHRPDSESDYVRPPRDEFRYVPDVAAHLEEERIKKEEKAKKAKKPAKAAGKNSDKQKSSGGKGKKKSKK” it is “failed”; for “MRKKQKLPFDKLAIALMSTSILLNAQSDIKANTVTEDTPAAEQAVETPQPTAVSEEVPSSKETKTPQTPDNAEETVADKANDLALQAPAKTADTPATSKATIRDLNDPSQVKTLQEKAGKGAGTVVAVIDAGFDKNHEAWRLTDKTKARYQSKEDLEKAKKEHGITYGEWVNDKVAYYHDYSKDGKTAVDQEHGTHVSGILSGNAPSETKEPYRLEGAMPEAQLLLMRVEIVNGLADYARNYAQAIRDAVNLGAKVINMSFGNAALAYANLPDETKKAFDYAKSKGVSIVTSAGNDSSFGGKTRLPLADHPDYGVVGTPAAADSTLTVASYSPDKQLTETATVKTADQQDKEMPVLSTNRFEPNKAYDYAYANRGMKEDDFKDVKGKIALIERGDIDFKDKIANAKKAGAVGVLIYDNQDKGFPIELPNVDQMPAAFISRKDGLLLKENPQKTITFNATPKVLPTASGTKLSRFSSWGLTADGNIKPDIAAPGQDILSSVANNKYAKLSGTSMSAPLVAGIMGLLQKQYEIQYPDMTPSERLDLAKKVLMSSATALYDEDEKAYFSPRQQGAGAVDAKKASAATMYVTDKDNTSSKVHLNNVSDKFEVTVTVHNKSDKPQELYYQATVQTDKVDGKHFALAPKALYETSWQKITIPANSSKQVTVPIDASRFSKDLLAQMKNGYFLEGFVRFKQDPKKEELMSIPYIGFRGDFGNLSALEKPIYDSKDGSSYYHEANSDAKDQLDGDGLQFYALKNNFTALTTESNPWTIIKAVKEGVENIEDIESSEITETIFAGTFAKQDDDSHYYIHRHANGKPYAAISPNGDGNRDYVQFQGTFLRNAKNLVAEVLDKEGNVVWTSEVTEQVVKNYNNDLASTLGSTRFEKTRWDGKDKDGKVVANGTYTYRVRYTPISSGAKEQHTDFDVIVDNTTLEVATSATFSTEDRRLTLASKPKTSQPIYRERIAYTYMDEDLPTTEYISPNEDGTFTLPEEAETMEGATVPLKMSDFTYVVEDMAGNITYTPVTKLLEGHSNKPEQDGSDQAPDKKPEAKPEQDGSGQTPDKKPETKPEKDSSGQTPGKTPQKGQPSRTLEKRSSKRALATKASARDQLPTTNDKDTNRLHLLKLVMTTFFFGLVAHIFKTKRQKETKK” it is “failed”.
On to “MRKSVSRASSIITGLLVMSIGLNSTEYLSIYKLILFNKKTCMKLKTHFVFSIGLLTLASSFFGFSLIISAIISVLGNTLIDRLGHKEISTRYGKIPVRTPLTHTLPRSVFWGLISSMPVIIVLGLAYGMLNTKILTALIDGILVGPSHMLLDVFTENGIYVKRNGKWKRVALAHFSYDSSLINGLAIVLGIIMIFAAMELHH”, for which the protein production result was “failed”.
The entry for “MRKTKTEALKTKEHLMLAALETFYRKGIARTSLNEIAQAAGVTRGALYWHFKNKEDLFDALFQRICDDIENCIAQDAEDAEGGSWAVFRHTLLHFFERLQSNDIYYKFHNILFLKCEHTEQNAAVIAIARKHQAIWREKITAVLTEAVENQDLADDLDKETAVIFIKSTLDGLIWRWFSSCERFDLGKTAPRIIGIMMDNLENHPDLRRK” is “not failed”; for “MRKVTAAVMASTLAFSFLSHAAEVVTSDNWHPGDGATQRSAQNHMFDGISLTEHQRQQMRDLMQQARHEQPPVNVSEMETMHRLVTAEKFDESAVRAQAEKMAQEQVARQVEMARVRNQMYRLLTPEQQAVLNEKHQQRMEQLRDVAQWQKSSSLKLLSSSNSRSQLEHHHHHH” it is “failed”; for “MRLALFDLDNTLLGGDSDHAWGDYLYQRGILDAATYKSRNDEFYQDYLAGTLNMTDYLNFTLEILGNTDMAQLQEWHREFMRDCIEPIMLPKALELIAKHREAGDKLVVITATNRFVTAPIVARLGIETLLATECEMVDGRYTGRTTGVPCFREGKVTRLNQWLEDNAFSLEDSYFYSDSMNDLPLLEQVANPVAVDPDARLRAEAEQRGWPVITLRS” it is “failed”.
In the case of “MRLDHLRLQNFRCYEDAHFDFQPGFNLVVGVNGSGKTSLLLGVAECLIPYGNAMGQGQEILSKEDVRFVIDRHEGRSRFERKFPVFIRADGDIFDLPNWRAVRLLEPWEGGVDPSSLSHLSAVLARNNAGEQIDFPVLAFYRANRRWSSARISAEFAAQQRTSRFDGYANWFDAVADLRDFESWLIARTLERLQDRLDSTPTVEREDELEWVNRAIRLAIPDAHDLRYDLRLQSLLVDMGEGNAVPFHELSDGQRSLIALIADIARRMCVLNPHIGKDVLANTGGIVIIDELDIHLHPAWQRNIAPTLKKAFPKVQFIATSHSPQVIGSLQPGEVILLKNGDSSHPRATYGLDSSTILEEVMGVPQREPEIEVLLDELFSTLENNELEKARLQLDALKKKAPDLPEFAGAEALLKRKELIGRLEHHHHHH” it was “not failed”; in that of “MRLEKGMPLKRQIRLKTAIILPFVLTFLFMILAMAAVQTYRYEQTVKELSSKKLSYLTDSISQRLSDFLNRPFFANQMIAYNVGFHHLYQLNDVSRIEDFIRAAANPIGNNIQQIDVVGFGGVNGEYVGLRRDAPEQYSLMLKDARTDDKLVIYQTATKNDQLRTVIDNYDPRVRPWFAPVAQKPSPQWSSVYTNMDEKQEITLSALSPVFQDKRFIGVMVSDVKLNTFNQFLSELKQRMNADVYVMDKQHRLIAHSGEGSVVSWGTPLSPKGERLFASENRNPIIRSSAEQLDLQGLNVGTFTTYVNQQRYFNQASAFTDQYGLTWYISVSIAEGDLLGSLPENQKTSWAIGLLVSLVGLGLGLMALNRVANPIISTASAARQLANGDWTASMPKPGKIYETSLLVQAFIEMTNSLKASFKALRSQLVYDSLTQLLSREGLVEHCHQIPQLNGGLILIGIDKFRDINDSLGHHQADQLLVAIAQRLKVTFPEPALIARIGGDEFAIYLPDVNQQDDLKSVATDILKLFASPFSMPSDNIAVNVSIGIVYLEEPNMTVWLRNGSIALSNAKAEHTHISFYSPEMANASRKRMLMVTQIKLALDNQEFVPFYQPIVDLNSGEVLGAEALARWISPEFGLIPPMDFIPIAEESGLINAIGEQILRQACADTVRGIAENKWPSTFHMHVNLSVNQLSHPDFIAQLHSVLDESGLQPTNLTLEITESRIVDNDPVILHNMLELKKARIHIAIDDFGTGYSSLAYLHKLPFDCLKIDREFVSQLNAYNIENSVVAAIVNMTRGFKVELVAEGIETQEQVDLLNQLGCPRGQGFLFSKPMAYQDWPTDLVNMKQS”, “failed”.
Take “MRLIRSVLCSSSAGFGQGFCSPSLRRHLSARFPRGHGNALANFSSCARSRVHAYSSASSATSVGVPVAKMRFIDIGANLLDEMYTGQYNDKPYHPPDLSAVLERAWAAGLEKLMITAGSLKEARAALELAKTDERLYCTVGCHPTRCKEFEDHPGGPEAYLQELLEVLKEGQALGKVVAVGECGLVATDYERLHFCDADTQKKYFEAQFRLAKESGLPMFLHLRAAADDFLDITGRHLGDFPRGGVVHSFDGTAEEAARVLAVPQLAIGINGCSLKTDDNLAVVGGLPLERIMLETDCPWCEIRPTHAGRKHVSAEALAGVTGAKDRKKFMPGCQVKSRNEPANIRQVLEVVAGVKGRTDLEAVADVIFGNTERMFFPTA”: the protein production entry is reported as “failed”.
In the case of “MRLLAILILCILVAACDRQAATEELTEARSAFANREWNDAERLLEGYLRRNPEGAQRWEAWNLLVEVAHRVRNDERATVELLETMYLENGSNPERAYDILTRLGELLEAGRDFRRAAEVWPRVLELPGLTPDTRALVSRRLARILVMQRRFPEAEERLKACLDTEGLSTEGRAGCLYDLADLNVASEHLDVAVDLATTLVGLEGLTPELRSQAGFLLADALEQRGRFAEALERFEALRGVYPNDMVIDTRVRHLKGRLGRK” it was “failed”.

The record behind these values is a protein production outcome set (Wang et al. 2014).
